Values joined by “and” are separate entries in the source; they are usually repeats but may differ in a detail not shown here. Equal entries are not always repeated.
Assays:
[1] = biological target: CRISPR-associated adenosine deaminase 1 (Cad1); assay: ITC; co-crystal structure at […] Å; type: binding, Bacteroidales bacterium
[2] = biological target: CRISPR-associated adenosine deaminase 1 (Cad1), hexa-histidyl tagged, full length (unknown Bacteroidales bacterium); assay: SEC-MALS; Superdex 200 10/300 increase column in buffer A (25 mM Hepes pH 8, 200 mM NaCl, 2 mM beta-mercaptoethanol, 5% glycerol); full-length Cad1 at 20 uM, apo and also after incubation with cA4 or cA6, ATP and MgCl2 (1:5:50:50) at 37 C
[3] = biological target: Cad1 E408A mutant (unknown Bacteroidales bacterium); assay: as above
[4] = biological target: Cad1 K342A mutant (unknown Bacteroidales bacterium); assay: as above
[5] = biological target: Cad1 W349A mutant (unknown Bacteroidales bacterium); assay: as above
[6] = biological target: hexa-histidyl-tagged CARF domain of Cad1 (residues 1-185) (unknown Bacteroidales bacterium); assay: as above

Question: Which Kd [1] does the source give for `Nc1ncnc2c1ncn2[C@@H]1O[C@@H]2COP(=O)(O)O[C@H]3[C@@H](O)[C@H](n4cnc5c(N)ncnc54)O[C@@H]3COP(=O)(O)O[C@H]3[C@@H](O)[C@H](n4cnc5c(N)ncnc54)O[C@@H]3COP(=O)(O)O[C@H]3[C@@H](O)[C@H](n4cnc5c(N)ncnc54)O[C@@H]3COP(=O)(O)O[C@H]3[C@@H](O)[C@H](n4cnc5c(N)ncnc54)O[C@@H]3COP(=O)(O)O[C@H]3[C@@H](O)[C@H](n4cnc5c(N)ncnc54)O[C@@H]3COP(=O)(O)O[C@H]2[C@H]1O` [cA6] here?
Answer: The Kd was 30 nM.

Question: “CRISPR-associated adenosine deaminase 1 (Cad1), hexa-histidyl tagged, full length (enzyme)” was tested. Which stoichiometry N [2] did it give?
Answer: The stoichiometry N was 6 and 2.

Question: With Cad1 E408A mutant (enzyme) as the molecule, how does the stoichiometry N [3] read?
Answer: The stoichiometry N was 6.

Question: For Cad1 K342A mutant (enzyme), which stoichiometry N [4] is on record?
Answer: The stoichiometry N was 6.

Question: How did the stoichiometry N [5] turn out when Cad1 W349A mutant (enzyme) was run?
Answer: Its stoichiometry N is 2.

Question: For “hexa-histidyl-tagged CARF domain of Cad1 (residues 1-185) (domain or fragment)”, which stoichiometry N [6] is on record?
Answer: Its stoichiometry N is 2.

Reference: publication PMC11645235 (Cell, 2024)
